In patent US20230331823A1 one finds EC50 (read off the curve) data, which are given here for one substance.

Experiment [1] deals with SARS-CoV-2 stabilized Spike trimer (S-2P) (SARS-CoV-2) (UniProt P0DTC2).
In experiment [2] the target is SARS-CoV-2 RBD (pCoV08, RBD-His6) (SARS-CoV-2 (Wuhan-Hu-1)) (UniProt P0DTC2). Briefly: BLI, RBD on probe, antibody, then hACE2 (blocked ligand). On the technique in general: In BLI a coated tip is dipped into the sample, and binding shifts an interference pattern.

A word on the EC50 (read off the curve): it is the concentration that produces a half-maximal response. A high value points to lower potency in that assay.

CR3022 (antibody): the EC50 (read off the curve) is 30 µg/mL in experiment [1] and 10 µg/mL in experiment [2].
